Data on two molecules can be found in patent publication US20140212432A1 (University of California, published 2014).

In experiment [1] the target is T1, human pro-uPA (zymogen uPA) (human, UniProt P00749 21-431).
T1 construct: mature
Description: quantitative ELISA, uPA-coated plates. As for the experimental part:
(§1) Serial dilutions of pure U33 were added to uPA coated plates and incubated for 1 hour. The amount of Fab bound to uPA was determined by ELISA. U33 Fab was detected only in wells coated with human active uPA. Panel B depicts inhibition of human uPA by U33. The proteolytic activity of human or mouse uPA was read in absence and presence of 1 μM of U33. The enzyme activity is expressed as percentage of the uPA activity in absence of Fab (100%). […] Serial dilutions of U33-Fab were added to uPAR-uPA coated plates and incubated for 1 hour and the activity of uPA was read. Panel D depicts prevention of uPA binding to PAI-1 coated plates by U33. Serial dilutions of pure U33 (4 μM to 31.2 nM) were pre-incubated overnight with uPA and added to PAI-1 coated plates. The amount of uPA bound to PAI was determined by ELISA. […] Serial dilutions of U33 were added to a uPA-coated plate pre-incubated with and without 1 μM CMK. The amount of U33 Fab bound to uPA was determined by ELISA.
(§2) The affinity and specificity of the U33 Fab was determined using quantitative ELISA as well as inhibition assays with human uPA (active and zymogen) and mouse uPA.

The target in experiment [2] is T2, mouse uPA (mouse, UniProt P06869 21-433, limits assumed).
T2 construct: The construct is not described; It was active-site titrated in the IgG ELISA, so it was an active form; also called mouse enzyme
T2 sequence (P06869 21-433 limits assumed): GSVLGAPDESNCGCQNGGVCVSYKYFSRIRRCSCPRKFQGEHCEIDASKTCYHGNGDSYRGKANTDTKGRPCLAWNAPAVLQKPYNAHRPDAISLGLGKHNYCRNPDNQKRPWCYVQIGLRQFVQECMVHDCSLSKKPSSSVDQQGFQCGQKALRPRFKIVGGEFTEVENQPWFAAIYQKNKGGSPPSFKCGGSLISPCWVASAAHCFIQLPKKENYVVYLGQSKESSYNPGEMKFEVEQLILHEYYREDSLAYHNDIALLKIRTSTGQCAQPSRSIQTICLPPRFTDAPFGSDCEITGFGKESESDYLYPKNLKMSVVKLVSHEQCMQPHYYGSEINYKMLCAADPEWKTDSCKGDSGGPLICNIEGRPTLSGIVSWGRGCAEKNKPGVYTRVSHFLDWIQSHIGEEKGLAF
Description: quantitative ELISA, uPA-coated plates. As for the experimental part: as §1, §2

Experiment [3] has as its target T3, uPA-PAI-1 complex (human, UniProt P00749 21-177; P00749 179-431; P05121 24-402). Description: binding of U33 Fab to uPA pre-incubated with PAI-1.
Experiment [4] has as its target T4, active human urokinase-type plasminogen activator (uPA) (human, UniProt P00749 21-177; P00749 179-431). Put plainly: steady-state enzyme inhibition of soluble uPA.
The target in experiment [5] is T1, human pro-uPA (zymogen uPA). Description: ELISA, plate coated with pro-uPA. The method, then:
(§3) ELISA assays were performed to further assess the selectivity of U33 IgG for uPA compared to highly related serine proteases. All proteases were active site-titrated to ensure that identical concentrations of active protease were adsorbed to the ELISA plate. After blocking, increasing concentrations of U33 IgG were incubated for 1 hour at RT. Unbound U33 IgG was removed by washing and bound U33 IgG was detected with an anti-human Fc-HRP secondary. 50 μL at of 2.8 nM active protease in coating buffer were added to each well in a Nunc Maxisorb ELISA plate and incubated 0/N at 4° C. Unbound protease was removed by hand washing wells 3× with wash buffer. Wells were incubated in 200 μL of Block Solution per well for 2 h at RT. Block Solution was removed by hand washing wells 3× with wash buffer. 50 μL of U33 IgG in Block Solution was added for 1 h at RT. The highest U33 IgG concentration was 651 nM, and was decreased in two-fold increments to 5.1 nM. Unbound U33 IgG was removed by hand washing wells 6× with wash buffer. 50 μL of 1:2000 dilution of secondary antibody in Block Solution was added for 1 h at RT. Unbound secondary antibody was removed by hand washing wells 6× with wash buffer. 100 μL of 1-step Ultra TMB-ELISA was added and then quenched with 100 μL of 1 M HCl. Signal was quantified by measuring A₄₅₀ on plate reader. […]

Experiment [6] addresses thrombin (UniProt P00734 328-622). Description: ELISA, protease-coated plate, anti-human Fc-HRP detection. The method, then:
(§4) ELISA assays were performed to further assess the selectivity of U33 IgG for uPA compared to highly related serine proteases. All proteases were active site-titrated to ensure that identical concentrations of active protease were adsorbed to the ELISA plate. After blocking, increasing concentrations of U33 IgG were incubated for 1 hour at RT. Unbound U33 IgG was removed by washing and bound U33 IgG was detected with an anti-human Fc-HRP secondary. 50 μL at of 2.8 nM active protease in coating buffer were added to each well in a Nunc Maxisorb ELISA plate and incubated 0/N at 4° C. Unbound protease was removed by hand washing wells 3× with wash buffer. Wells were incubated in 200 μL of Block Solution per well for 2 h at RT. Block Solution was removed by hand washing wells 3× with wash buffer. 50 μL of U33 IgG in Block Solution was added for 1 h at RT. The highest U33 IgG concentration was 651 nM, and was decreased in two-fold increments to 5.1 nM. Unbound U33 IgG was removed by hand washing wells 6× with wash buffer. 50 μL of 1:2000 dilution of secondary antibody in Block Solution was added for 1 h at RT. Unbound secondary antibody was removed by hand washing wells 6× with wash buffer. 100 μL of 1-step Ultra TMB-ELISA was added and then quenched with 100 μL of 1 M HCl. Signal was quantified by measuring A₄₅₀ on plate reader. Results for U33 binding to uPA, thrombin, HGFA, hepsin, chymotrypsin and trypsin are shown in FIG. 4, panel A. Results for U33 binding to uPA, MT-SP1 and plasmin are shown in FIG. 4, panel B. Results for U33 binding to uPA and tPA are shown in FIG. 4, panel C. […] Therefore U33 IgG can discriminate between proteases with identical catalytic mechanisms and similar protein folds.
For orientation: An ELISA detects its analyte on a solid surface through an enzyme-linked reagent.

Experiment [7] deals with T5, HGFA (UniProt Q04756 373-655, limits assumed).
T5 sequence (looked up): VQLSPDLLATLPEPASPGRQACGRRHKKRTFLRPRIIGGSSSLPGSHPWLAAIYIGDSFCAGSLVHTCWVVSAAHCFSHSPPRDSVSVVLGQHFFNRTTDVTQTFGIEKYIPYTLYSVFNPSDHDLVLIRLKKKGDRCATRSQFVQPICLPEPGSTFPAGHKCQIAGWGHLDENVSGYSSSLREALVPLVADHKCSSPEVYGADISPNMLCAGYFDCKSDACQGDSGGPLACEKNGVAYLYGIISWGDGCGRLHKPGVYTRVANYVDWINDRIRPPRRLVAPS
Described as above. The method, then:
as §4

Experiment [8] deals with plasmin (UniProt P00747 97-810, limits assumed). The experiment is described as above. As for the experimental part: as §4
Sequence of plasmin (P00747 97-810 limits assumed): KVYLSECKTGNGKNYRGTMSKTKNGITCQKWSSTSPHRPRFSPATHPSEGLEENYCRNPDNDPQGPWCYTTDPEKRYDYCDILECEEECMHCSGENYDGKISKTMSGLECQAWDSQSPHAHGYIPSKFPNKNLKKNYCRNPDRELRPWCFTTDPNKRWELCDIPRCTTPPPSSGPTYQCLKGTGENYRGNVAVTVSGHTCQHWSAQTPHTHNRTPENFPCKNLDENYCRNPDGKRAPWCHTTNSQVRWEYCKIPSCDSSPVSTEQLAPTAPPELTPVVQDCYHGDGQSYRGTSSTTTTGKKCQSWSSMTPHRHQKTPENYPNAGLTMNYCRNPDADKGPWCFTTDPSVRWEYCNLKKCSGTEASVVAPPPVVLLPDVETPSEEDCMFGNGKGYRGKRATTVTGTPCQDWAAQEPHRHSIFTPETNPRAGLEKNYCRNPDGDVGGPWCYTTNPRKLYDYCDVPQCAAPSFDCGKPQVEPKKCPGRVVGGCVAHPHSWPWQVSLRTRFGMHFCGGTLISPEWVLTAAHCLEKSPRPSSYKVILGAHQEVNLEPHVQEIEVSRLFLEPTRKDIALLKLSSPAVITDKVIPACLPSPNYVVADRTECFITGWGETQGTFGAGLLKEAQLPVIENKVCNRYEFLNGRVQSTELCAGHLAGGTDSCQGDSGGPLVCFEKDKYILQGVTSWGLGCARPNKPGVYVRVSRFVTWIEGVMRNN
Experiment [9] has as its target T6, MT-SP1 (UniProt Q9Y5Y6 615-855, limits assumed).
T6 sequence (looked up): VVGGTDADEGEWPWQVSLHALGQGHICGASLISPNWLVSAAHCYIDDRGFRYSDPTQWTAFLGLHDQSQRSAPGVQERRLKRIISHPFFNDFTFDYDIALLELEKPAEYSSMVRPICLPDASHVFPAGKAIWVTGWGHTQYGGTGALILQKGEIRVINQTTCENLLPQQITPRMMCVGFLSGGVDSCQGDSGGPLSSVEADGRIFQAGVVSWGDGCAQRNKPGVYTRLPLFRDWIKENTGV
Described as above. As for the experimental part:
as §4

Experiment [10] concerns the target hepsin (UniProt P05981 45-417, limits assumed). Described as above. The method, then:
as §4

Experiment [11] addresses tPA (UniProt P00750 36-562). Described as above. The method, then:
as §4

The target in experiment [12] is T2, mouse uPA. The experiment is described as above. The method, then: as §4
In experiment [13] the target is T4, active human urokinase-type plasminogen …. Description: enzyme inhibition of uPA.
The target in experiment [14] is T3, uPA-PAI-1 complex. Description: ELISA, uPA-coated plate pre-treated with PAI-1 (133 nM to 8.3 nM). As for the experimental part: as §3

Sequence of tPA (P00750 36-562 limits assumed): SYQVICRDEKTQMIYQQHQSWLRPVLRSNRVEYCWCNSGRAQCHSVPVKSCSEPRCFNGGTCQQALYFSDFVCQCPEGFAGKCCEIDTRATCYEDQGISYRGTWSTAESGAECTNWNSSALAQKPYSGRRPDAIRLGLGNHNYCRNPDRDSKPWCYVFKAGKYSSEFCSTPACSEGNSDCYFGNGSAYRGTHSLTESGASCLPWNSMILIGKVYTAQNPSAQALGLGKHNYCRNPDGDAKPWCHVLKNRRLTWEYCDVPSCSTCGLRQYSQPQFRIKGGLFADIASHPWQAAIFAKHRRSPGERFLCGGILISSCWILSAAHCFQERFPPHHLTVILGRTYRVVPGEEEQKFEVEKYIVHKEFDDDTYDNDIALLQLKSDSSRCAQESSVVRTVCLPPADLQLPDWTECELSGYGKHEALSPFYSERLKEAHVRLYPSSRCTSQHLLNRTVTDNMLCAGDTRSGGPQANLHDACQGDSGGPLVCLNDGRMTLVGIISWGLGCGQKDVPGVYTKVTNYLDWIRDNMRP
Sequence of hepsin (P05981 45-417 limits assumed): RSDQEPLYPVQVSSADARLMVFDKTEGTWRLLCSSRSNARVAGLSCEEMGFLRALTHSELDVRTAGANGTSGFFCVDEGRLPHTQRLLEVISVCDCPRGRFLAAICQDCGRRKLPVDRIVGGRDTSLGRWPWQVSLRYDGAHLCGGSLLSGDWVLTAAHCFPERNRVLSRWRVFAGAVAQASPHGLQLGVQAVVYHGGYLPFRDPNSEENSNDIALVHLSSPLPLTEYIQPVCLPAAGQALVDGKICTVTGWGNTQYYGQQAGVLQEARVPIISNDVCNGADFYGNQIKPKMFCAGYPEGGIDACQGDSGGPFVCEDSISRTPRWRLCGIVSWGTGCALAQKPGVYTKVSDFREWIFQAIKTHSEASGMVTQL

B1: U33 Fab (Fab, V domains shown)
VH: EVQLVQSGGGLVKPGRSLRLSCTASGFTFGDYAMSWVRQAPGKGLEWVGFIRSKAYGGTTEYAAVKGRFTISRDDSKSIAYLQMNSLKTEDTAVYYCIRGANWNWGQGTLVTVSS
VL: EIVLTQSPLSLPVTPGEPASISCRSSQTLMNRNGNNFLDWYLQKPGQSPQLLIYLGSNRAPGVPDRFSGSGSGTDFTLKISRVEAEDVGVYYCMQRIEFPYTFGQGTKLEIKR
notes: Human Fab from a naive B cell phage display library; also called clone U33; Fab U33
As for B1, the binding result in experiment [1], in experiment [2] and in experiment [3] was “no binding” in each case. Also, in experiment [4], affinity was put at a Ki of 20 nM.

B2: U33 IgG (antibody, V domains shown)
VH: B1 VH
VL: B1 VL
notes: U33 Fab converted to full length IgG; It was detected with an anti-human Fc secondary; The internalisation study used the 111In-DOTA labelled form; also called full length IgG; 111In-U33 IgG
On to B2, for which the binding result in experiment [5], in experiment [6], in experiment [7], in experiment [8], in experiment [9] and in [10] was “no binding (tested: highest U33 IgG concentration 651 nM)” each time. In addition, the binding result in experiment [11], in [12] and in experiment [14] was “no binding (tested: highest U33 IgG concentration 651 nM)” in each case. Further, in experiment [13], affinity was put at a Ki of 10 nM.
